B1: Ras-related protein Rab-27A (Homo sapiens), P51159 (parent)
chain: MSDGDYDYLIKFLALGDSGVGKTSVLYQYTDGKFNSKFITTVGIDFREKRVVYRASGPDGATGRGQRIHLQLWDTAGQERFRSLTTAFFRDAMGFLLLFDLTNEQSFLNVRNWISQLQMHAYCENPDIVLCGNKSDLEDQRVVKEEEAIALAEKYGIPYFETSAANGTNISQAIEMLLDLIMKRMERCVDKSWIPEGVVRSNGHASTDQLSEEKEKGACGC
partner: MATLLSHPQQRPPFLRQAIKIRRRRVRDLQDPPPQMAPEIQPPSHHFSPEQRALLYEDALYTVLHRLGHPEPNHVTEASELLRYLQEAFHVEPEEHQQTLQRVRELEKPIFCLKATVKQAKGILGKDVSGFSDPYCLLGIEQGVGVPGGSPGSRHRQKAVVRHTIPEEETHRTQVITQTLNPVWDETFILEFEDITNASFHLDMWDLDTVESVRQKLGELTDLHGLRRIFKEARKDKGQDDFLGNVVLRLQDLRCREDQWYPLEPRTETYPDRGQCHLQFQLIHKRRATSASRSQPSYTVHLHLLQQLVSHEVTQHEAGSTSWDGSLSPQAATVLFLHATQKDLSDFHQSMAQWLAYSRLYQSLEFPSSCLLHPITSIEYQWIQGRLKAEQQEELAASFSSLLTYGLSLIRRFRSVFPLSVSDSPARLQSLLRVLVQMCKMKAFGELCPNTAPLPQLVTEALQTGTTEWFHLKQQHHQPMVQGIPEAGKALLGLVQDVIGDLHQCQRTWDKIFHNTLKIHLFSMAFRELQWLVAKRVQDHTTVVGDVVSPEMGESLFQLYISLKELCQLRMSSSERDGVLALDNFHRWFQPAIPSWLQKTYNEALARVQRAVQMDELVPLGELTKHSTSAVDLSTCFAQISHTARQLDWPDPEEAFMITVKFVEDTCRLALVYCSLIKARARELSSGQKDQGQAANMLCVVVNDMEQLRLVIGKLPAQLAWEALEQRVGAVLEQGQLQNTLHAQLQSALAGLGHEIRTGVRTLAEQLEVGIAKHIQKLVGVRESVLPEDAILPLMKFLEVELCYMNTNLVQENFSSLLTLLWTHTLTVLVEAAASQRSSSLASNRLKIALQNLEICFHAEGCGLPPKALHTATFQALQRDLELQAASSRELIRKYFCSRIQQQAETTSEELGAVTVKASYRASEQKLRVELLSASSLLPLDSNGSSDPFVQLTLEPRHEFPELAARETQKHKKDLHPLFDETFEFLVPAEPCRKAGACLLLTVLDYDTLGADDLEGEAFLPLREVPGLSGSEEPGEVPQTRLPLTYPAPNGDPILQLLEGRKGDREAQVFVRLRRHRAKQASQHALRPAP
B2: Ras-related protein Rab-27A (Homo sapiens), P51159 (parent)
chain: B1 chain
partner: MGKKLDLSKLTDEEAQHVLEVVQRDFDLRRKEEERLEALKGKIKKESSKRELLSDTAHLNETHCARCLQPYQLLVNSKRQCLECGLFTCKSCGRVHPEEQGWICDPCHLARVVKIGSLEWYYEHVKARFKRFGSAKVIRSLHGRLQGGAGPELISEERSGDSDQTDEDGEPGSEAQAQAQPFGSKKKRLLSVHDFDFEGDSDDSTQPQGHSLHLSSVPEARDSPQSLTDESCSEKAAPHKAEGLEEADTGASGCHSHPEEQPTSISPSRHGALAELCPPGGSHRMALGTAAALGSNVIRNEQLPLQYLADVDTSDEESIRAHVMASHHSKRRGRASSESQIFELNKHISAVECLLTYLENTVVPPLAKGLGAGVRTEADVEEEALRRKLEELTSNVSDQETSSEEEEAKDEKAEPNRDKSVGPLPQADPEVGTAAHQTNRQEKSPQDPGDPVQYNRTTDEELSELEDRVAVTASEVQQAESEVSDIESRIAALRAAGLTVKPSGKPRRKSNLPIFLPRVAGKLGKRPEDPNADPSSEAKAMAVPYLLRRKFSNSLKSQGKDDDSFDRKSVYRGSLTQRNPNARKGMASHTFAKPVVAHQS

Variants of: B1
Conditions: with un13d_human UNC13D

effect of a mutation on the interaction | Variant
disrupting interaction strength | MSDGDYDYLIKFLALGDSGVGKTSVLYQYTDGKFNSKFITTVGIDFREKRVVYRASGPDGATGRGQRIHLQLWDTAGQERFRSLTTAFFRDAMGFLLLFDLTNEQSFLNVRNWISQLQMHAYCENPDIVLCGNKSDLEDQRVVKEEEAIALAEKYGIPCFETSAANGTNISQAIEMLLDLIMKRMERCVDKSWIPEGVVRSNGHASTDQLSEEKEKGACGC [Y159C]
decreasing interaction strength | MSDGDYDYLIKFLALGDSGVGKTSVLYQYTDGKFNSKFITTVGIDFREKRVVYRASGPDGATGRGQRIHLQLWDTAGQERFRSLTTAFFRDAMGFLLLFDLTNEQSFLNVRNWISQLQMHAYCENPDIVLCGNKSDLEDQRVVKEEEAIALAEKYGIPYFETRAANGTNISQAIEMLLDLIMKRMERCVDKSWIPEGVVRSNGHASTDQLSEEKEKGACGC [S163R]
decreasing interaction strength | MSDGDYDYLIKFLALGDSGVGKTSVLYQYTDGKFNSKFITTVGIDFREKRVVYRASGPDGATGRGQRIHLQLWDTVGQERFRSLTTAFFRDAMGFLLLFDLTNEQSFLNVRNWISQLQMHAYCENPDIVLCGNKSDLEDQRVVKEEEAIALAEKYGIPYFETSAANGTNISQAIEMLLDLIMKRMERCVDKSWIPEGVVRSNGHASTDQLSEEKEKGACGC [A76V]

Variants of: B2
Conditions: with melph_human MLPH

effect of a mutation on the interaction | Variant
with no effect | MSDGDYDYLIKFLALGDSGVGKTSVLYQYTDGKFNSKFITTVGIDFREKRVVYRASGPDGATGRGQRIHLQLWDTVGQERFRSLTTAFFRDAMGFLLLFDLTNEQSFLNVRNWISQLQMHAYCENPDIVLCGNKSDLEDQRVVKEEEAIALAEKYGIPYFETSAANGTNISQAIEMLLDLIMKRMERCVDKSWIPEGVVRSNGHASTDQLSEEKEKGACGC [A76V]
decreasing interaction strength | MSDGDYDYLIKFLALGDSGVGKTSVLYQYTDGKFNSKFITTVGIDFREKRVVYRASGPDGATGRGQRIHLQLWDTAGQERFRSLTTAFFRDAMGFLLLFDLTNEQSFLNVRNWISQLQMHAYCENPDIVLCGNKSDLEDQRVVKEEEAIALAEKYGIPYFETRAANGTNISQAIEMLLDLIMKRMERCVDKSWIPEGVVRSNGHASTDQLSEEKEKGACGC [S163R]
with no effect | MSDGDYDYLIKFLALGDSGVGKTSVLYQYTDGKFNSKFITTVGIDFREKRVVYRASGPDGATGRGQRIHLQLWDTAGQERFRSLTTAFFRDAMGFLLLFDLTNEQSFLNVRNWISQLQMHAYCENPDIVLCGNKSDLEDQRVVKEEEAIALAEKYGIPCFETSAANGTNISQAIEMLLDLIMKRMERCVDKSWIPEGVVRSNGHASTDQLSEEKEKGACGC [Y159C]

— IntAct's records for PubMed 25312756
